The text below walks through data of patent US20260347455 (published 2026).

Test [1] addresses T1, human BMP6 (Peprotech 120-06) (human).
T1 chain: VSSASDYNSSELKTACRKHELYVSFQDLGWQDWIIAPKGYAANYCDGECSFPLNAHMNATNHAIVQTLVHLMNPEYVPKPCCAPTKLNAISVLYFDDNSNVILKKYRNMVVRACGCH
Kind of test: SPR, 37C, pH 7.6. In general terms: SPR reads the build-up and loss of mass on a sensor chip optically.

Test [2] deals with T1, human BMP6 (Peprotech 120-06). Kind of test: SPR, 37C, pH 7.6, bivalent (relative KD).

B1: CL-58838 Fab (antibody, V domains shown)
VH: QVQLVESGGGLVKPGGSLRLSCAASGFTFSDYYMSWIRQAPGKGLEWVSYISISGSTIYYADSVKGRFTISRDNAMDSLYLQMNSLRAEDTAVYYCARRSSGWYDYWGQGTLVTVSS
VL: EIVLTQSPGTLSLSPGERATLSCWASQRVVYRYLAWYQRKPGQAPRLLIYGAFNRATGIPDRFSGSGSGTDFSLTISRLEPEDFAVYYCHQYGSSPPTFGQGTKVEIK
Take B1: the Kd in test [1] was 0.14 nM.

B2: CL-58838 IgG4 (antibody, V domains shown)
VH: QVQLVESGGGLVKPGGSLRLSCAASGFTFSDYYMSWIRQAPGKGLEWVSYISISGSTIYYADSVKGRFTISRDNAMDSLYLQMNSLRAEDTAVYYCARRSSGWYDYWGQGTLVTVSS
VL: EIVLTQSPGTLSLSPGERATLSCWASQRVVYRYLAWYQRKPGQAPRLLIYGAFNRATGIPDRFSGSGSGTDFSLTISRLEPEDFAVYYCHQYGSSPPTFGQGTKVEIKR
B2 displayed a Kd in test [2] of 0.07 nM.
